# Test results published in patent US20150374848A1, “Methods for the Treatment of Head and Neck Squamous Cell Carcinoma” (Vigilant Biosciences, Inc., priority 2010, published 2015).
# Entries after “also recorded” stand apart in the source; their conditions may differ.
# B1: chPTA-4621: chimeric PTA-4621 comprising VH and VL domains of SEQ ID NO:1 and SEQ ID NO:2 (antibody, V domains shown)
# VH: EVKLLESGGGLVQPGGSLKLSCATSGFDFSRYWMSWVRQAPGKGLEWIGEVNPDSTSINYTPSLKDQFIISRDNAKNTLDLQMSKVSSEDTALYYCTRPNYYGSRYHYYAMDYWGQGTSVTVSS
# VL: DIQMTQTTSSLSVSLGDRVTINCRASQDINNYLNWYQQKPDGTVKLLIYYTSRLHSGVPSRFSGSGSGTDFSLTISNLEKEDVATYFCQQGSTLPFTFGSGTKLEIK
# modifications: human constant regions without entry; Synthetically generated peptide
# B2: PTA-4621: murine monoclonal anti-CD44 antibody produced by hybridoma ATCC PTA-4621; VH SEQ ID NO:1, VL SEQ ID NO:2 (antibody, V domains shown)
# VH: B1 VH
# VL: B1 VL
# modifications: Synthetically generated peptide
# Tests used:
# [1] = molecular target: CD44 as expressed on human HNSCC cell lines (T.Tn, SCC-15, Detroit-562, CAL 27) (human) (UniProt P16070); assay: flow cytometry on CAL 27 cells, antibody at 20 ug/mL, duplicate samples
# T.Tn HNSCC cell line = assay: FACS binding to HNSCC cell line T.Tn; set-up: species or system human; conditions: antibody 20 μg/mL on ice 30 minutes
# Procedure: (§1) The binding of chPTA-4621 and huPTA-4621 to HNSCC cell lines T.Tn, SCC-15, and Detroit-562 was assessed by flow cytometry (FACS). Cells were prepared for FACS by initially washing the cell monolayer with DPBS (without Ca^++ and Mg^++). Cell dissociation buffer (INVITROGEN, Burlington, ON; for T.Tn, SCC-15 and Detroit-562) was then used to dislodge the cells from their cell culture plates at 37° C. After centrifugation and collection, the cells were resuspended in DPBS containing MgCl2, CaCl2, and 2 percent fetal bovine serum at 4° C. (staining media) and counted, aliquoted to appropriate cell density, spun down to pellet the cells and resuspended in staining media at 4° C. in the presence of test antibodies (chimeric or humanized PTA-4621) or control antibodies (isotype control, anti-EGFR (C225; T.Tn, SCC-15 and Detroit-562). Isotype control and test antibodies were assessed at 20 μg/mL on ice for 30 minutes. For detection of bound antibody, an Alexa Fluor 546 conjugated secondary antibody was used. Prior to the addition of the secondary antibody, the cells were washed once with staining media. The secondary antibody in staining media was then added according to manufacturer's directions. […] Flow cytometric acquisition of the T.Tn, SCC-15 and Detroit-562 cells was assessed by running samples on a FACScan using the CellQuest software (BD Biosciences, Oakville, ON). […]
# SCC-15 HNSCC cell line = assay: FACS binding to HNSCC cell line SCC-15; set-up: species or system human; conditions: antibody 20 μg/mL on ice 30 minutes
# Procedure: as §1
# [2] = tested on: Detroit-562 HNSCC cell line; assay: FACS binding to HNSCC cell line Detroit-562; set-up: species or system human; conditions: antibody 20 μg/mL on ice 30 minutes
# Procedure: as §1
# T.Tn HNSCC xenograft = assay: established T.Tn HNSCC xenograft model; assay type: in vivo; conditions: 20 mg/kg i.p. three times per week
# Procedure: With reference to FIGS. 2 and 3, 6 to 8 week old female SCID mice were implanted with 10 million T.Tn cells in 100 microliters PBS solution injected subcutaneously in the right flank. The mice were randomly divided into 2 treatment groups of 10. When the average tumor volume of the mice reached approximately 264-268 mm^3, 20 mg/kg of chPTA-4621 test antibody or buffer control was administered intraperitoneally to each cohort in a volume of 300 microliters after dilution from the stock concentration with a diluent that contained 2.7 mM KCl, 1 mM KH2PO4, 137 mM NaCl and 20 mM Na2HPO4. The antibody and control samples were then administered three times per week for the duration of the study. Tumor growth was measured about every 7 days with calipers. The study was completed after ten doses of antibody. Body weights of the animals were recorded once per week for the duration of the study. At the end of the study all animals were euthanized according to CCAC guidelines.
# [3] = tested on: human breast cancer, liver cancer and prostate cancer xenografts; conditions: preventative and established models; cited from earlier work
molecule,measurement,setting,value
Humanized PTA-4621 (RO5429083) (antibody),fold binding compared to the humanized IgG1 isotype control,[1],37 fold
B1,binding to T.Tn cell line (FACS),T.Tn HNSCC cell line,bind
same,binding to SCC-15 cell line (FACS),SCC-15 HNSCC cell line,bind
same,binding to Detroit-562 cell line (FACS),[2],bind
same,clinical signs of toxicity / tolerability,T.Tn HNSCC xenograft,no clinical signs of toxicity; also recorded: well-tolerated
same,mean body weight between the groups at end of treatment period,T.Tn HNSCC xenograft,no significant difference
same,reduction of tumor growth compared to buffer treated group,"T.Tn HNSCC xenograft; ten doses, day 105, p=0.0068",54.9%
B2,anti-tumor effects in pre-clinical xenograft models,[3],significant anti-tumor effects
